# Results taken from the DeepSol protein solubility set.
# Assay: soluble on expression in E. coli; label from the status in PepcDB or PDB records
row,Sequence,soluble on expression in E. coli
1,MGSDKIHHHHHHMAGFRPKASPRLSPDAERLVADALALDASGSRMEDAYWERRLSQRLGRLLKNGSQTALDAALEHLFKHNADASDVLAEQAETLAESAMVEVDGVRYDALLVAAPILAHTRYAIPSGSLKPDLAQTLAVHLQAHVLATGTKVALSPYLYSIDQLPRTHSDTFALTHKLAAAALSGTVPKVDLRDLPETAPILADPRYLLAVVVAPHEQALFRWQEDAKEHHAERSTCLEQWRSQVQATVALLLPGCEFELLLPDAFFLSCRESDKSIRPLTVRAAVNYLSGTLDVPAGQLAAVVAAFGEEVVEEYRVGFTMRGEKDVIYGIVWPVYGREAGEVDADEKGNPLEQICEELRNAGVEDIFRHAALFDPEYCEDCGTPLYADRNGEIVHAELPEDAPTQQPLFH,not soluble
2,ETRVRRTKTIVEITGLDARSGSLRINELYRWEPVHDNFKRAGDSYVLNEIMRARGWSPDKLFIEFKNREQILAYMTAKQIRDYVSVSLIVHMYATNPQLVMEAVGNDTLRDMVAHHS,not soluble
3,MKRRLLCALLASTLAQPLTVRADLPDLGEISDASLSLSDEARIGRDALRAMREAGDVVDDPEVNAYLNDVGGRLAAAAAVPGVRFTYFCVADAGINAFAMPGGYVGINIGLMLASQSEGELAAVLGHETAHVAQRHIARMQAANSAASPLLLLGTIVAAALAAKAGSGDGAMGAVSAGMGLSISRQLAFSRDFEREADRVGMQYMSAAGFDVRNMAAFFQRLEQASRYSDNTAYAFLRTHPVTLERISEAQNRALDYPVRMRADSVDYLLVREKLRVLTLSPEEAVSHYSSALQRGLYLNEGANWYGLARAKLLQHDRAGASEALAKARAKLPDNPMLYGLEVEIARDGRDWAAAARAARNGLSAFPRSVSLQLAQLDVALDGGDRKAAQAQLRQLLDSRRDDPALYRREAKLYADKDPLRYHAALGNAFYYEQRYGAALEQYQLAGKAKGDDFYLRSMLEARLREVEKLAKEERKAARNLEHHHHHH,soluble
4,MDNQPYNPLHGLTLKTIVTELEAYFGFETLGKTIKIKCFTDDPSIQSTLKFLRKTPWAREKVEQLYIKNKIKIQNSFESGDLDLEHHHHHH,not soluble
5,MGSDKIHHHHHHMSTVSAQEAVSLREAAERRSQFARVPARSVSAPPRKKWFRSKQQLSGAADGMDGSSRAGSQEIVCDEFTKKLVAAITTWHDIHSSLLQLSIERSSNDSNEEHENVSVSSESSWSSASDSESDEDSATGRDSTNNHLSASAARFSISNPDLTNCQIKQMFPEMADHWR,not soluble
6,MKKPVHDMRQHIIDVARSLMTNKGYTAVGLAEVLITAGVPKGSFYYYFKSKEEFGQALLEEYFSEYLGRVDALMARPGTGAERLLAYFMYWSETQGTDLPEGKCLVVKLGAEVCDLSEDMRCVLEVGTAKIIQRISACVEMGVSDGSIHPEGDHQGFAESLYQLWLGASLLVKVNKSTESFDKALNMTKRLLK,not soluble
7,MVQHLSAQEIIQYISDAKKSTPLKVYVNGHFENVTFPESFKVFGSEHSKVIFCEANEWKQFYQQNHSLITELEIEMDRRNSAIPLKDL,not soluble
8,MEVQFKNTRKGYYLNSERIELHKGDVVAVEANPGHDIGTVTLTGKLVKLQMRKHRYNTNNGEPFKIYRIAKQGDLDKYCEAKAREYDTMIQSRQISAELNLDMKIGDVEYQGDGNKAIFYYIADERVDFRQLIRVLAETFHIRVEMKQIGARQEAGRIGGIGPCGRQLCCSAWKMNFVSVNTSAARYQDLALNPQKLTGLCAKLKCCLNYEVDAYVEARKKMPSPEIVLETKESAYHYFKADVFRREVSYSTVPNAPVNLTTISARRAFEVISQNKQGFKPVSLEYDDKKQSSGHELSDILTDNSLTRFDDALSRRRRRNGNGNRDFSDREKAGEPHRTPDSIQPTPRVRSSSRMPSREKSPRPEGGDRRENMRERSRGDARFARPYTNEGGSERMEGARRVVGSGRRPPRQSTPRQEDRQGERKEELEHHHHHH,soluble
9,MSLTKLLLLQKIKDPDLKQIHRDFPDLELINADEMTNELVDQIEIVYGQFSHLQKGYGFSSWFGKVVPNGKSLKWVQTISAGIDFLPLDQLAKRGIMVSNMSGLHSEAISENVLAYILILNRGLKFALANQAKQSWDFNFPKIKQLQDKKILIFGTGAIGSAIAKILQAFDVEVIGVNRHGKDLKYFDRVITQEQLGDFADADYLISDMPLTTQTRGYFDSDFFSLFKKQPIFINVGRGPSVVEKDLIKALKADILSGAALDVFEHEPLASDSPLWKMENVIVTPHSSALLEHFQRDAYKIFGPNLKSYLANGEGHHHHHH,not soluble
10,MMQTSRPTLQLLTASACYRDDPTALFHQLCGARPATLLLESAEVDNKQNLKSLLVIDSALRITALGQTVTLEALTRNGASLLPLLDASLPTEVDIQVRPNGRELTFPLINEVQDEDSRLQSLSVFDALRQLLTLVNTPLAEREALFLGGLFAYDLVAGFENLPPLRQDQRCPDFCFYLAETLLVLDHQHRSTRLQASLFTPDSSEYQRLATRLEQLSHQLQQAPHPIPATSVPEMALQCNQSDEEYCNVVSELQVAIREGEIFQVVPSRRFTLPCPSPLAAYQTLKDHNPSPYMFFMQDNDFSLFGASPESALKYDASNRQIEIYPIAGTRPRGRRPNGELDRDLDSRIELEMRTDHKEMAEHLMLVDLARNDLARICEPGSRYVADLTKVDRYSFVMHLVSRVIGTLRQDLDVLHAYQACMNMGTLSGAPKVRAMQLIASNEGSRRGSYGGAVGYFTAHGDLDTCIVIRSAYVEDGIATVQAGAGVVLDSVPQAEADETRNKARAVLRAIATAHHAKEIF,not soluble
11,SLLGGPGIELFRRLVEEYEREHDVPMADIAAALAVQCRGGEAFLMAPDPPLSRRNRDQRRDRPQRPKRRPDLTTYRVAVGKRHKIGPGAIVGAIANEGGLHRSDFGQIRIGPDFSLVELPAKLPRATLKKLAQTRISGVLIDLRPYRPPDAARRHNGGKPRRKHVG,not soluble
12,MENAKMNSLIAQYPLVKDLVALKETTWFNPGTTSLAEGLPYVGLTEQDVQDAHARLSRFAPYLAKAFPETAATGGIIESELVAIPAMQKRLEKEYQQPISGQLLLKKDSHLPISGSIKARGGIYEVLAHAEKLALEAGLLTLDDDYSKLLSPEFKQFFSQYSIAVGSTGNLGLSIGIMSARIGFKVTVHMSADARAWKKAKLRSHGVTVVEYEQDYGVAVEEGRKAAQSDPNCFFIDDENSRTLFLGYSVAGQRLKAQFAQQGRIVDADNPLFVYLPCGVGGGPGGVAFGLKLAFGDHVHCFFAEPTHSPCMLLGVHTGLHDQISVQDIGIDNLTAADGLAVGRASGFVGRAMERLLDGFYTLSDQTMYDMLGWLAQEEGIRLEPSALAGMAGPQRVCASVSYQQMHGFSAEQLRNTTHLVWATGGGMVPEEEMNQYLAKGR,soluble
13,MELARPRSNFQSDLDFCPDCGSVLPLPGIQDTVICSRCGFSIDVRDCEGKVVKTSVVFNKLGATIPLSVDEGPELQGPVIDRRCPRCGHEGMAYHTRQMRSADEGQTVFYTCINCKFQEKEDS,soluble
14,MLNVGATAPDFTLRDQNQQLVTLRGYRGAKNVLLVFFPLAFTGICQGELDQLRDHLPEFENDDSAALAISVGPPPTHKIWATQSGFTFPLLSDFWPHGAVSQAYGVFNEQAGIANRGTFVVDRSGIIRFAEMKQPGEVRDQRLWTDALAALTA,soluble
15,AHHHHHHGSLGRLARWLRLYGYDTLYGIEDDNEILRIAEEEGRIILTRDVELYRQAQVRNLRAILITSNSFEEQVKQLMMERVEFSELFPENARCPKCNGVIRSAKKEEVKGKVPENVYNSYNEFYICTSCGQIYWPGRQWREMLKMDKKIKANKL,soluble
16,MKINRKGGLFLLMFLFLLTGCWDRRELEHVLFINTLGIDFKDNHYIIYPQFINFTNMAKQEGPANRNYSPAYIGKGEGKLLYDAAFDFYKSSQQKVSWEHIKSIVVTERFLKNGNLNQLNDFLSRFFQFRNTMWVFGTKEPLENILATNNIFNISSLYTIMNLPQETIRQSASVDPLRLYTFRSNYYEPGMTTRIPFLATTTEHWKQGHKAFWMLEFNEYGCIAAKSYVNHLNDSDIAGVRWTNKNTNRAPLLLKVKNRAIGELILKKPKIDTKVSIEKGKPHIVMNISLEGDIYQLMKPMPVHKVKKTLRISLKKK,not soluble
